Measured values as given in the supplement of paper PMC10567573.

B1: SEC22B (parent)
chain: AKQLFRKLNEQSPTRCTLEAGAMT

Variants of: B1
Test: protein stability index of a GFP-peptide fusion (GPS, HEK-293T) (PSI 1-6); higher = more stable
Conditions: c terminus: a fixed tail appended
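Note: lentivirally expressed fusions sorted by FACS into six bins by GFP to DsRed ratio, PSI derived from sequencing read proportions per bin multiplied by bin number.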

Variant | protein stability index
AKQLVRKLNEQSPTRCTLEAGAMT | 2.95
AKQLHRKLNEQSPTRCTLEAGAMT | 2.89
AKQLGRKLNEQSPTRCTLEAGAMT | 3.62
AKQLRRKLNEQSPTRCTLEAGAMT | 3.22
AKQLQRKLNEQSPTRCTLEAGAMT | 3.23
AKQLSRKLNEQSPTRCTLEAGAMT | 3.44
AKQLKRKLNEQSPTRCTLEAGAMT | 3.47
AKQLARKLNEQSPTRCTLEAGAMT | 3.67
AKQLWRKLNEQSPTRCTLEAGAMT | 1.94
AKQLYRKLNEQSPTRCTLEAGAMT | 2.28
AKQLPRKLNEQSPTRCTLEAGAMT | 3.46
AKQLNRKLNEQSPTRCTLEAGAMT | 3.07
AKQLDRKLNEQSPTRCTLEAGAMT | 3.37
AKQLCRKLNEQSPTRCTLEAGAMT | 2.55
AKQLMRKLNEQSPTRCTLEAGAMT | 2.62
AKQLERKLNEQSPTRCTLEAGAMT | 2.97
AKQLIRKLNEQSPTRCTLEAGAMT | 2.3
AKQLLRKLNEQSPTRCTLEAGAMT | 2.48
AKQLTRKLNEQSPTRCTLEAGAMT | 2.75
AKQLFRKLQEQSPTRCTLEAGAMT | 2.5
AKQLFRKLMEQSPTRCTLEAGAMT | 1.85
AKQLFRKLTEQSPTRCTLEAGAMT | 1.97
AKQLFRKLDEQSPTRCTLEAGAMT | 2.98
AKQLFRKLVEQSPTRCTLEAGAMT | 1.39

Variant | protein stability index
AKQLFRKLFEQSPTRCTLEAGAMT | 2.57
AKQLFRKLKEQSPTRCTLEAGAMT | 2.58
AKQLFRKLEEQSPTRCTLEAGAMT | 3.56
AKQLFRKLGEQSPTRCTLEAGAMT | 2.47
AKQLFRKLCEQSPTRCTLEAGAMT | 1.92
AKQLFRKLHEQSPTRCTLEAGAMT | 1.84
AKQLFRKLREQSPTRCTLEAGAMT | 2.88
AKQLFRKLPEQSPTRCTLEAGAMT | 2.59
AKQLFRKLYEQSPTRCTLEAGAMT | 2.6
AKQLFRKLSEQSPTRCTLEAGAMT | 1.8
AKQLFRKLIEQSPTRCTLEAGAMT | 2.13
AKQLFRKLWEQSPTRCTLEAGAMT | 3.44
AKQLFRKLLEQSPTRCTLEAGAMT | 1.35
AKQLFRKLAEQSPTRCTLEAGAMT | 1.95
AKQLFRKLNTQSPTRCTLEAGAMT | 2.31
AKQLFRKLNPQSPTRCTLEAGAMT | 1.34
AKQLFRKLNFQSPTRCTLEAGAMT | 2.99
AKQLFRKLNHQSPTRCTLEAGAMT | 2
AKQLFRKLNVQSPTRCTLEAGAMT | 1.81
AKQLFRKLNLQSPTRCTLEAGAMT | 1.08
AKQLFRKLNQQSPTRCTLEAGAMT | 1.54
AKQLFRKLNAQSPTRCTLEAGAMT | 1.88
AKQLFRKLNGQSPTRCTLEAGAMT | 2.13
AKQLFRKLNIQSPTRCTLEAGAMT | 2.7

Variant | protein stability index
AKQLFRKLNWQSPTRCTLEAGAMT | 1.56
AKQLFRKLNCQSPTRCTLEAGAMT | 1.41
AKQLFRKLNKQSPTRCTLEAGAMT | 1.65
AKQLFRKLNDQSPTRCTLEAGAMT | 2.18
AKQLFRKLNMQSPTRCTLEAGAMT | 2.72
AKQLFRKLNNQSPTRCTLEAGAMT | 1.95
AKQLFRKLNYQSPTRCTLEAGAMT | 3.1
AKQLFRKLNSQSPTRCTLEAGAMT | 2.89
AKQLFRKLNRQSPTRCTLEAGAMT | 2.22
AKQLFRFLNEQSPTRCTLEAGAMT | 1.67
AKQLFRILNEQSPTRCTLEAGAMT | 1.81
AKQLFRELNEQSPTRCTLEAGAMT | 2.89
AKQLFRPLNEQSPTRCTLEAGAMT | 3.33
AKQLFRYLNEQSPTRCTLEAGAMT | 1.52
AKQLFRSLNEQSPTRCTLEAGAMT | 2.31
AKQLFRVLNEQSPTRCTLEAGAMT | 2.47
AKQLFRMLNEQSPTRCTLEAGAMT | 1.83
AKQLFRCLNEQSPTRCTLEAGAMT | 2.82
AKQLFRGLNEQSPTRCTLEAGAMT | 2.24
AKQLFRLLNEQSPTRCTLEAGAMT | 1.69
AKQLFRNLNEQSPTRCTLEAGAMT | 2.47
AKQLFRTLNEQSPTRCTLEAGAMT | 2.54
AKQLFRQLNEQSPTRCTLEAGAMT | 2.25
AKQLFRRLNEQSPTRCTLEAGAMT | 2

Variant | protein stability index
AKQLFRDLNEQSPTRCTLEAGAMT | 2.7
AKQLFRALNEQSPTRCTLEAGAMT | 1.97
AKQLFRHLNEQSPTRCTLEAGAMT | 2.64
AKCLFRKLNEQSPTRCTLEAGAMT | 2.39
AKALFRKLNEQSPTRCTLEAGAMT | 2.2
AKHLFRKLNEQSPTRCTLEAGAMT | 1.93
AKPLFRKLNEQSPTRCTLEAGAMT | 2.5
AKILFRKLNEQSPTRCTLEAGAMT | 1.77
AKFLFRKLNEQSPTRCTLEAGAMT | 2.18
AKGLFRKLNEQSPTRCTLEAGAMT | 2.39
AKWLFRKLNEQSPTRCTLEAGAMT | 2.53
AKTLFRKLNEQSPTRCTLEAGAMT | 2.59
AKRLFRKLNEQSPTRCTLEAGAMT | 1.93
AKVLFRKLNEQSPTRCTLEAGAMT | 2.11
AKLLFRKLNEQSPTRCTLEAGAMT | 2.08
AKMLFRKLNEQSPTRCTLEAGAMT | 1.94
AKYLFRKLNEQSPTRCTLEAGAMT | 1.55
AKDLFRKLNEQSPTRCTLEAGAMT | 2.3
AKKLFRKLNEQSPTRCTLEAGAMT | 2.02
AKELFRKLNEQSPTRCTLEAGAMT | 2.51
AKSLFRKLNEQSPTRCTLEAGAMT | 1.88
AKNLFRKLNEQSPTRCTLEAGAMT | 3.08
